Data taken from patent US20130108623A1.

Columns and labels:
FcγRIIb = FcγRIIb (UniProt P31994); assay: in vitro binding, method not stated for the single mutant
FcγRIIa (H) variant = FcγRIIa (H) variant (UniProt P12318); assay: as above
Sequence of UniProt P12318 (P12318 34-217 limits assumed, change not shown): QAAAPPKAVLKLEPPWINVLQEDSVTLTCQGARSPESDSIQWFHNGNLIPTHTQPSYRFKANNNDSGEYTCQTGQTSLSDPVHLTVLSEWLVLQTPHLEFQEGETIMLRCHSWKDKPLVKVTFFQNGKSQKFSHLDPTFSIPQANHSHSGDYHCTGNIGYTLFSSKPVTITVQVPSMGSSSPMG

Sequence of UniProt P31994 (P31994 43-217 limits assumed): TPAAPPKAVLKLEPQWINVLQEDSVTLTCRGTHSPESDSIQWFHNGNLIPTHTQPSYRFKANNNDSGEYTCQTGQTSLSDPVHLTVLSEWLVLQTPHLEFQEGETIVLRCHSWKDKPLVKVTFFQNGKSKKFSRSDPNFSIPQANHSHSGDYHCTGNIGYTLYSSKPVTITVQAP

| Substance | fold reduction of binding against wild type (FcγRIIb) | fold reduction of binding against wild type (FcγRIIa (H) variant) | fold improvement of binding against wild type (FcγRIIb) |
| --- | --- | --- | --- |
| Fc variant D270N (single mutation) (antibody) | 100 fold | 100 fold |  |
| Fc variant K326E (single mutation) (antibody) |  |  | 4 fold |
